Assay results reported in patent publication US10323078B2, “Isolated peptides and fragments thereof from fibrinogen for use as drugs, particularly in skin inflammatory diseases” (Universite Paris Descartes, priority 2015, dated 2019).

Tests used:
[1] = tested on: P. acnes 6919 strain; assay: Adhesion assay, biotinylated P. acnes binding to HaCaT keratinocytes; type: cell-based, Propionibacterium acnes; conditions: P. acnes 6919 pre-treated with whole fibrinogen 0.01 to 0.5 mM, 1 h at 37° C.
Method: FIG. 12: Dose-dependent inhibition of P. acnes binding to keratinocytes. Biotinylated P. acnes 6919 strain at concentrations adjusted to 0.1 of absorbance at 600 nm was pre-treated with whole human (dark gray bar) and bovine (light gray bar) fibrinogen at the concentrations ranging from 0.01 to 0.5 mM and incubated 1 h at 37° C. with the human HaCaT keratinocyte cell line. After removal of unbound bacteria, adhesion activity was detected at 410 nm. Data are means±S.D. of three separate experiments. Statistical significance is indicated by * (P<0.05), ** (P<0.01), *** (P<0.001), and **** (P<0.0001), respectively.
The bacterial suspension was adjusted at 600 nm to the desired concentration, pretreated with peptides Fg1 and Fg2 at the final concentration ranging from 0.87 to 7 μM for 1 h at 37° C. and deposited on the previously saturated cells with a solution of PBS SVF 2% for 2 h. After incubation for 1 h at 37° C., unbound bacteria are removed by 3 washes with PBS and fixed bacteria are detected by a streptavidin-peroxidase solution of 0.5 μg/ml for 30 min.
Whole P. acnes bacteria are labelled by biotinylation, pre-treated or not with the peptides and contacted with the various cell lines. After removal of the unfixed bacteria, the adhesion activity was measured spectrophotometrically by using the streptavidin-peroxidase conjugate and a chromogenic substrate. […]

[2] = tested on: Pfg; assay: Western ligand blot with biotinylated Pfg; type: binding, Propionibacterium acnes; conditions: 10 μg per lane, 10% SDS-PAGE; biotinylated Pfg 0.1 μg/ml
Method: (§1) FIG. 5: Binding of P. acnes surface proteins to fibrinogen. (A) Various quantities of human fibrinogen (hFg) and bovine fibrinogen (bFg) were immobilized onto a 96-well polystyrene plate at 4° C. for 18 h and incubated with biotinylated Pfg at 0.1 μg/ml for 2 h at 23° C. Bovine serum albumin (BSA) was used as negative control. Bound material was detected by using the HRP-streptavidin conjugate. Peroxidase activity was measured by using the ABTS substrate at 405 nm. Proteins (10 μg per lane) were separated by 10% SDS-PAGE and detected by (B) Commassie blue staining, and transferred to nitrocellulose membrane and incubated with (C) HRP-streptavidine alone, and (D) biotinylated Pfg (0.1 μg/ml). Lanes 1: molecular weight standards. Lane 2: BSA. Lane 3: hFg. Lane 4: bFg.
FIG. 8: Cloning of Bß human fibrinogen fragments and binding with Pfg. (A) Cloning and expression of recombinant human Bß fibrinogen fragments Fg1, Fg2, Fg3 and Fg4. Fibrinogen fragments were obtained by RT-PCR and expression plasmids were constructed as described in Materials and Methods. (B) GST-fused proteins were expressed in E. coli, fractionated by 12.5% SDS-PAGE, and detected by Coomassie blue staining (B), and incubated with biotinylated Pfg (0.1 μg/ml) as described in Materials and Methods (C).
To characterize the interaction between P. acnes and ligands, we used biotinylated molecules in quantitative and qualitative assays. In a first set of assays, ECM ligands (fibrinogen, collagens I, IV, VI and VIII) were used as labelled proteins with biotin. In a second set of assays, P. acnes surface proteins (total extract and purified Pfg) were biotinylated. For quantitative analysis, unlabeled protein were diluted into 50 mM carbonate-bicarbonate, pH 9.6 buffer to yield a protein concentration ranging from 0.01 to 50 μg/ml, and then immobilized to 96-well polystyrene plates at 4° C. overnight. The wells were rinsed three times with 0.2 ml of PBS containing 0.05% Tween-20 (PBS-Tween). Biotinylated proteins (0.01 to 16 μg/ml in PBS-Tween) were added to the wells and incubated at room temperature for 1 h. The wells were rinsed three times with 0.2 ml of PBS-Tween. Peroxidase conjugated to streptavidin (0.5 μg/ml in PBS-Tween) was added and incubated for 30 min at room temperature. After washing, bound peroxidase was detected using the chromogenic peroxidase substrate ABTS. For qualitative analysis, unlabelled protein (10-75 μg per lane) were separated by SDS-PAGE and then transferred to nitrocellulose membranes (0.45 μm pore size), as described previously (Towbin, 1979). Membranes were then saturated overnight at 4° C. in PBS containing 5% BSA, 0.05% Tween-20 (PBT buffer). Binding activity was detected by incubating the membranes with 20 ml of PBT containing biotinylated proteins (0.1 μg/ml) for 2 h at room temperature followed by three washes with PBT. Bound biotinylated proteins were detected by incubating the membrane with peroxidase conjugated to streptavidin (0.5 μg/ml in PBT) for 1 h at room temperature. After washing, bound peroxidase activity was detected using 3,3′-diaminobenzidine in the presence of CoCl2 and H2O2 (Harlow and Lane, 1988).
Since it was shown that Pfg is recognized by fibrinogen, this ECM ligand was used to analyze the nature of this interaction. First it was analyzed the ability of fibrinogen to be recognized by purified Pfg (FIG. 5). Human and bovine Fg (hFg, bFg) were immobilized to polysterene plate and the binding activity of biotinylated Pfg was measured. […] It has been shown that fibrinogen is a glycoprotein containing both N- and O-linked glycans (Debeire 1985; Reid Townsend 1982; L'Hôte 1996). […] In parallel, deglycosylation was assessed by visualization of a shift in the mobility after electrophoresis separation and Coomassie blue staining (FIG. 6A, lanes 3 and 5) and also by using the RCA-I plant lectin able to recognize ß-linked galactosyl residues in terminal position (FIG. 6C) (Green, 1987). […]

[3] = tested on: Pfg; assay: Binding of biotinylated Pfg to immobilized fibrinogen (polystyrene plate); set-up: species or system Propionibacterium acnes; conditions: various quantities of fibrinogen immobilized; biotinylated Pfg 0.1 μg/ml, 2 h at 23° C.
Method: as §1, with “Lane 3: hFg. Lane 4: bFg.” left out
To characterize the interaction between P. acnes and ligands, we used biotinylated molecules in quantitative and qualitative assays. […] For quantitative analysis, unlabeled protein were diluted into 50 mM carbonate-bicarbonate, pH 9.6 buffer to yield a protein concentration ranging from 0.01 to 50 μg/ml, and then immobilized to 96-well polystyrene plates at 4° C. overnight. […] After washing, bound peroxidase was detected using the chromogenic peroxidase substrate ABTS. […] Binding activity was detected by incubating the membranes with 20 ml of PBT containing biotinylated proteins (0.1 μg/ml) for 2 h at room temperature followed by three washes with PBT. […]

B1: bovine fibrinogen: purified commercial bovine fibrinogen (Sigma) (protein)
chain 1: EDGSDPPSGDFLTEGGGVRGPRLVERQQSACKETGWPFCSDEDWNTKCPSGCRMKGLIDEVDQDFTSRINKLRDSLFNYQKNSKDSNTLTKNIVELMRGDFAKANNNDNTFKQISEDLRSRIEILRRKVIEQVQRIKVLQKNVRDQLVDMKRLEVDIDIKIRSCKGSCSRALEHKVDLEDYKNQQKQLEQVIAINLLPSRDIQYLPLIKMSTITGPVPREFKSQLQEAPLEWKALLEMQQTKMVLETFGGDGHARGDSVSQGTGLAPGSPRKPGTSSIGNVNPGSYGPGSSGTWNPGRPEPGSAGTWNPGRPEPGSAGTWNPGRPEPGSAGTWNPGRPEPGSAGTWNPGRPEPGSAGTWNTGSSGSSSFRPDSSGHGNIRPSSPDWGTFREEGSVSSGTKQEFHTGKLVTTKGDKELLIDNEKVTSGHTTTTRRSCSKVITKTVTNADGRTETTKEVVKSEDGSDCGDADFDWHHTFPSRGNLDDFFHRDKDDFFTRSSHEFDGRTGLAPEFAALGESGSSSSKTSTHSKQFVSSSTTVNRGGSAIESKHFKMEDEAESLEDLGFKGAHGTQKGHTKARPARGIHTSPLGEPSLTP
chain 2: QFPTDYDEGQDDRPKVGLGARGHRPYDKKKEEAPSLRPVPPPISGGGYRARPATATVGQKKVERKPPDADGCLHADPDLGVLCPTGCKLQDTLVRQERPIRKSIEDLRNTVDSVSRTSSSTFQYITLLKNMWKGRQNQVQDNENVVNEYSSHLEKHQLYIDETVKNNIPTKLRVLRSILENLRSKIQKLESDVSTQMEYCRTPCTVTCNIPVVSGKECEKIIRNEGETSEMYLIQPEDSSKPYRVYCDMKTEKGGWTVIQNRQDGSVDFGRKWDPYKQGFGNIATNAEGKKYCGVPGEYWLGNDRISQLTNMGPTKLLIEMEDWKGDKVTALYEGFTVQNEANKYQLSVSKYKGTAGNALIEGASQLVGENRTMTIHNSMFFSTYDRDNDGWKTTDPRKQCSKEDGGGWWYNRCHAANPNGRYYWGGAYTWDMAKHGTDDGVVWMNWQGSWYSMKKMSMKIRPYFPEQ
chain 3: YVATRDNCCILDERFGSYCPTTCGIADFLNNYQTSVDKDLRTLEGILYQVENKTSEARELVKAIQISYNPDQPSKPNNIESATKNSKSMMEEIMKYETLISTHESTIRFLQEVYNSNSQKIVNLRDKVVQLEANCQEPCQDTVKIHDVTGRDCQDVANKGAKESGLYFIRPLKAKQFLVYCEIDGSGNGWTVFQKRLDGSLDFKKNWIQYKEGFGHLSPTGTGNTEFWLGNEKIHLISTQSSIPYVLRIQLEDWNGRTSTADYASFKVTGENDKYRLTYAYFIGGDAGDAFDGYDFGDDSSDKFFTSHNGMQFSTWDSDNDKYDGNCAEQVGIGWWMNKCHAGHLNGVYYQGGTYSKTSTPNGYDNGIIWATWKSRWYSMKKTTMKIIPLNRLAIGEGQQHQLGGAKQVGVEHHVEIEYD
[1]
  Inhibition of adhesion of P. acnes to keratinocytes: able to inhibit the adhesion
[2]
  Recognition by biotinylated Pfg after electrophoretic separation of fibrinogen: recognized by Pfg
[3]
  Binding of biotinylated Pfg to immobilized fibrinogen: dose-dependent
